Legend:
[1] = biological target: PmScsCΔLinker (Proteus mirabilis); experiment: crystal structure
[2] = biological target: PmScsCΔLinker (Proteus mirabilis); experiment: SAXS
[3] = biological target: Proteus mirabilis suppressor of copper sensitivity protein C (PmScsC) (Proteus mirabilis); experiment: SAXS

PmScsCΔLinker (enzyme)
stoichiometry N [1]: 3 | Kd [2]: 200 µM | percent dimer at 0.1 mg/mL [2]: 3% | percent dimer at 10 mg/ml [2]: 48% | percent monomer at 0.1 mg/mL [2]: 97% | percent monomer at 10 mg/ml [2]: 40% | percent trimer at 10 mg/ml [2]: 12%

Proteus mirabilis suppressor of copper sensitivity protein C (PmScsC) (enzyme)
percent present as monomer at 0.1 mg/mL [3]: 1% | stoichiometry N [3]: 3
